Test results taken from article PMC4092071.

Tests used:
Assay in all cases: equilibrium inhibitor binding assay (free trypsin by residual activity on a fluorogenic substrate); BPTI variants (0-100 pM) and trypsin (50 pM) in solution, 15 h at 22°C, 0.1 M Tris-HCl (pH 8.0), 1 mM CaCl2, 0.05% Tween 20; free trypsin from cleavage of Z-Gly-Pro-Arg-AMC; free protease against total inhibitor fitted with a quadratic equation
[1] = molecular target: sulfated human anionic trypsin (human) (UniProt P07478)
[2] = molecular target: non-sulfated human anionic trypsin (human) (UniProt P07478)
[3] = molecular target: non-sulfated human cationic trypsin (human)
[4] = molecular target: sulfated human cationic trypsin (human)

Row | Substance | Kd [1] [pM] | Kd [2] [pM] | Kd [3] [pM] | Kd [4] [pM]
1 | BPTI variant carrying Ile at P2′ (P1′ Ala, P3′ Asp, P4′ Ile, P19′ Val) (designed binder) | 1.3 | 0.3 | 0.5 | 3.2
2 | BPTI variant carrying Leu at P2′ (P1′ Ala, P3′ Asp, P4′ Ile, P19′ Val) (designed binder) | 4 | 1.2 | 1.2 | 13.4

The next lines start with the values.

Row | Kd [1] [pM] | Kd [2] [pM] | Kd [3] [pM] | Kd [4] [pM] | Substance
3 | 2.2 | 0.3 | 0.7 | 7.9 | BPTI variant carrying Ala at P2′ (P1′ Ala, P3′ Asp, P4′ Ile, P19′ Val) (designed binder)
4 | 0.4 | 0.7 | 0.9 | 1 | BPTI variant carrying Arg at P2′ (P1′ Ala, P3′ Asp, P4′ Ile, P19′ Val) (designed binder)
5 | 1.3 | 1.6 | 3.9 | 3.3 | BPTI variant carrying Lys at P2′ (P1′ Ala, P3′ Asp, P4′ Ile, P19′ Val) (designed binder)
